{"source": "the DeepSol protein solubility set", "data": [{"experiment": "soluble on expression in E. coli; label from the status in PepcDB or PDB records", "values": [{"sequence": "GPGSMKKTVEDRSLEFLIRRRNDAELPPLASLSCKHLKQHHWRDAFDDEQAALREQLWAVKTQLDVIPAETYTATRNKLFPLAASGEQRNFSNRAGHKLLESMESTGVWMELSKLLRGKSTKRPRDFAFADVCGGPGAFSQALFQAGRKRGWRHLHGYGMTLAGVSGLDWYAHLLKSPQFTCTYGLDGTGDIFKLSNIDCLASITKAAPMFLVVADGGFNVDFSVTNYQETISSRIMYGQWLAALKLLRKGGCFVLKLFDTFSPLSRAVLYLSCCMYRRVHVAKPRHSRVVNSERYLVCVDFLGYPSEGWSRYLDSFYEVGFVDNEHVPQLIPREWCLQDAVFMADVRDMNTAVATNQVIALQMILDAAPAMTEELKAKTIEKKPAAGSDDGRTPPPDEGGDGE", "soluble on expression in E. coli": "not soluble"}, {"sequence": "GPGSMLEEVLKCYEEMKDPAAHQLAEAALPKLMEALGEESENSVMEVMLRCIGRCVSVHPAIMSPTNTALVCDKVMAALEVVVKRRNECLQKKATENDEDELDALEVEDEEVHLTISSMCDLIGTLLAASKEVFAAPFLEKAFPVLGEWLQASTDDFYMTRAAGILSDFVTHAPQSIVPSLPQICASSLTIASSSSDDGLLQSDFYLMNVIVQLLGSHATTNMGVDGGEYAVHVQQVAEKYFSSNLVNQEEYTHCTCNVISLYVSLLNFYGTTVLQQAATSMLTVVGKALPAKDDEIEARRIHDVVLGWVTNNHPVLQALPGSTAGFLTCVKAASPNCLSEQAKQYLASM", "soluble on expression in E. coli": "soluble"}, {"sequence": "GPGSMLKCSLCYLASKVTAGNAKNQAGHPRRRAKLFHVVPGTPVTPFEKLKEQRRRFGQDRHSRLPEYRPGNNVRMDPNTYTLYATKKGVMTIRESRINPKYKWLDVEPDIQKVYRSRELRRALQEREMASMAVGENSNYRVELDLLLEPDWRERVMHVPKATERFKDPNLFTRGVVNELSPLDRYSYT", "soluble on expression in E. coli": "not soluble"}, {"sequence": "GPGSMLPQLLTENLCSLVEAEDRYAFSILWEFDENLNVVRDWFGKTIIRSRGALYYGDAQRMIDNPADTSDIAVSLRELMRLSKHFKAQREEDGALFLASQEFKFKVDNEHVNPTDMQVYQTFEANSMIEEWMLYANAAVATKVYESYPQWTLLRRHEPPAEGAFDTLNDALYSKLRVRLDDTTSLTLNKSLDKCEDPQDPYFNKLIRILTTRCLRQAQYFSSGG", "soluble on expression in E. coli": "not soluble"}, {"sequence": "GPGSMLPTVPCFGSQWCIESVMDLSGLVPTSKELTEGQREHIRDLQYEIDEIWNRRGDYKIDSSAWEQMPLFMENITEEDLQRNADCAALASIAYDDVPPEEVAESRKQHGNRAIQLALDPKQVNKENLARATVHCYTEGLAAKCKDPVLNSQLYANRSLAQYIIHNYGHGLEDAQRAIILDPDYYKAYYRAARCAERIGKYDLALDLLAKGRRTNPAPVGRALEDFVDIERVCREGKERAESKKKKENLSTRVKAAQTSSTLRCVTSSGVRCSPRAEVSSEQMGVYGHHEPYFDSEGLLHVPILFMYDEYQQTDFMQDVSCDVCVGELLDELMPFPWDDRGRYQRIDDILVVYKIDGGVKDPKYYEVDLSLPLMEVFRSESYQMPALLPVLHIICKHSDMLTEWDVQMLR", "soluble on expression in E. coli": "soluble"}, {"sequence": "GPGSMLQSLVNSIVFVPPRDPNSLQRVQLLQRKRHMSFTSKKSGERISYFHFDPKGDLVTKDNPERVVRSSMVLLFHHGNAEDLGSAFSYAQSMACVFGVAVVVYDYCGYGFSGFPDAAKPAEVTEKSVYSDADHMYAHLLSLGYPAHRIIIVGRSVGGGPACYLAEKHHKKVGGLVLISTFTSCLRVVSSCCLPYLCCCVDLFPNYRRIEHIMECPVLVMHGTHDNVVPHHCSSELLEDIVARRNNALQRLLKKREGARANQAKRSSVLGAASTGPTNTTTASATIIVADEALVTAQPPLDGETVSVFDLYRRAYDGLPEAVRRVAEGRLDVTAADASIGVFHRWFAGCGHNDIEAREGHAFSDMFDYFVRFSTAFSMEREALLLAKPVTGAAKASRDSLNRADSEVRE", "soluble on expression in E. coli": "not soluble"}]}]}
